From patent publication US20160046672A1, “STAPLING eIF4E INTERACTING PEPTIDES” (AGENCY FOR SCIENCE, TECHNOLOGY AND RESEARCH, priority 2013, published 2016)
Positions of bridges follow the written chain, without caps; N, C: chain ends. Non-standard residues stand in square brackets, D forms with d. R5 = C=CCCC[C@@](C)(N)C(=O)O; S5 = C=CCCC[C@](C)(N)C(=O)O; Abu = CC[C@H](N)C(=O)O; Aib = CC(C)(N)C(=O)O

How the values were obtained:
circular dichroism = settings: 5 mM sodium phosphate; pH 7.0; ns °C; 0.5 or 2 mg/mL
eIF4E = target: T1, eIF4E (Homo sapiens, UniProt P06730); experiment: eIF4E affinity (SPR/FP, method not named); format: binding
T1 construct: made in house
T1 sequence (P06730 whole entry): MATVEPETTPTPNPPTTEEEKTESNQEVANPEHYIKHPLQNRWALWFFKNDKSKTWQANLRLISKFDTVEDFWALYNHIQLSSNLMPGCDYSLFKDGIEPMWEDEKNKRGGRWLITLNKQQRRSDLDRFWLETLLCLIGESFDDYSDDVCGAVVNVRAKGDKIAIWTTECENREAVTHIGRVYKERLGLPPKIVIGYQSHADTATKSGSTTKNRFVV
Description: (§1) Apparent Kd values were determined for a variety of molecules via competitive anisotropy anisotropy experiments. Titrations were carried out with the concentrations eIF4E held constant at 200 nM, respectively and the labeled peptide at 50 nM. The competing molecules were then titrated against complex of the FAM labeled peptide and protein. Apparent Kd values were determined by fitting the experimental data to the equations shown below: […]
(§2) Six buffer blanks were first injected to equilibrate the instrument fully and then a solvent correction curve was performed followed by a further two blank injections. […] Using a flow rate of 50 μl/min, compounds were injected for 60 s and dissociation was monitored for 180 s. The data collection rate was 10 Hz. Kds were determined using the BiaEvaluation software (Biacore) and calculated kinetically from the dissociation and association phase data for each of the peptides. The kinetic data were fitted to 1:1 binding models. Each individual peptide Kd was determined from three separate titrations. Within each titration at least two concentration points were duplicated to ensure stability and robustness of the chip surface.

[1] = Circular dichroism, percent α-helicity in solution; format: physicochemical; settings: CD, 5 mM sodium phosphate buffer pH 7.0
Description: CD was measured on a JASCO J-810 spectropolarimeter, and spectra were either recorded with a quartz cuvette (Helmer) with a pathlength of 0.01 cm or 0.1 cm in 5 mM sodium phosphate buffer (pH 7.0). FUV CD spectra were recorded from 260 nm to 200 nm at a peptide concentration of either 2 mg/ml or 0.5 mg/ml, respectively. The CD signal was converted into mean residue ellipticity in units of degree·cm^2·dmol^−1·residue^−1. CD spectra were recorded at a data pitch of 0.2 nm at 50 nm min^−1, a response time of 2 s, and a bandwidth of […]. Once converted to mean residue ellipticity, percent α-helicity can be calculated with equation (1) and (2): […]

[2] = target: T2, human eukaryotic translation initiation factor 4E (eIF4E), full-length (human, UniProt P06730 2-217); experiment: competitive fluorescence anisotropy (FP), displacement of FAM tracer from eIF4E, apparent Kd
T2 construct: mature; For SPR it was amine-coupled to a CM5 chip with m7GTP present in a 2:1 ratio. 'mature' is used here for full length; also called full length eIF4E
T2 sequence (P06730 2-217): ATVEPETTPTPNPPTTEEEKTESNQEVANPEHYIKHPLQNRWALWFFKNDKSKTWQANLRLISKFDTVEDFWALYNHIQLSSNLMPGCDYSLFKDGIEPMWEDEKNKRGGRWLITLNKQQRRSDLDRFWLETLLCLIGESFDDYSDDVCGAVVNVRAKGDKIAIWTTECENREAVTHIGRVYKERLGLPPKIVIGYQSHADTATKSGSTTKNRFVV
Description: as §1, with “The competing molecules were then titrated against complex of the FAM labeled peptide and protein.” left out

[3] = target: T2, human eukaryotic translation initiation …; experiment: SPR, Biacore T100, eIF4E immobilised on CM5, peptide as analyte, kinetic 1:1 fit
Description: (§3) For stock peptide solutions, the compounds were dissolved in 100% DMSO to a concentration of 10 mM; further dilutions of the peptide stock solutions into DMSO and/or running buffer were performed immediately prior to analysis. Running buffer consisted of 10 mM Hepes pH 7.6, 0.15M NaCl, 1 mM DTT and 0.1% Tween20. Stock/DMSO diluted peptide solutions were diluted into 1.03× running buffer to make a peptide solution with 3% DMSO final concentration. […] Surface Plasmon resonance experiments were performed on a Biacore T100 machine.
eIF4E was immobilized on a CM5 sensor chip. The CM5 chip was conditioned with a 6 s injection of 100 mM HCL, followed by a 6 s injection of 0.1% SDS and completed with a 6 s injection of 50 mM NaOH at a flow rate of 100 μl/min. […] Purified eIF4E was diluted with 10 mM sodium acetate buffer (pH 5.0) to a final concentration of 0.5 μM with m⁷ GTP present in a 2:1 ratio in order to stabilize eIF4E. The amount of eIF4E immobilized on the activated surface was controlled by altering the contact time of the protein solution and was approximately 1000 RU. After the immobilization of the protein, a 7-min injection (at 10 μl min⁻¹) of 1 M ethanolamine (pH 8.5) was used to quench excess active succinimide ester groups.
as §2, with “titrations.” for “titrations. Within each titration at least two concentration points were duplicated to ensure stability and robustness of the chip surface.”

[4] = target: T2, human eukaryotic translation initiation …; experiment: Kd ratio from Table 2 (SPR/FP; which assay is not said)
[5] = target: T2, human eukaryotic translation initiation …; experiment: SPR, Biacore T100, eIF4E immobilised on CM5, peptide as analyte, kinetic 1:1 fit; SPR (first value of the SPR/FP cell); weak, about 9 uM
Description: as §3
(§4) eIF4E was immobilized on a CM5 sensor chip. The CM5 chip was conditioned with a 6 s injection of 100 mM HCL, followed by a 6 s injection of 0.1% SDS and completed with a 6 s injection of 50 mM NaOH at a flow rate of 100 μl/min. […]
as §2, with “The data collection rate was 10 Hz.” left out, “The kinetic data were fitted to 1:1 binding models.” left out, “titrations.” for “titrations. Within each titration at least two concentration points were duplicated to ensure stability and robustness of the chip surface.”

[6] = target: T2, human eukaryotic translation initiation …; experiment: Kd ratio from Table 2 (SPR/FP; which assay is not said; the reference is the linear template eIF4G^D5S)
[7] = target: T2, human eukaryotic translation initiation …; experiment: SPR, Biacore T100, eIF4E immobilised on CM5, peptide as analyte, kinetic 1:1 fit; SPR (first value of the SPR/FP cell); weak, about 12 uM
Description: as §3, §4
as §2, with “The data collection rate was 10 Hz.” left out, “The kinetic data were fitted to 1:1 binding models.” left out, “titrations.” for “titrations. Within each titration at least two concentration points were duplicated to ensure stability and robustness of the chip surface.”

## CC(=O)N[C@@H](CCCCN)C(=O)N[C@@H](CCCCN)C(=O)N[C@@H](CCCNC(=N)N)C(=O)N[C@@H](Cc1ccc(O)cc1)C(=O)N[C@@H](CO)C(=O)N[C@@H](CCCNC(=N)N)C(=O)N[C@@H](CCC(=O)O)C(=O)N[C@@]1(C)CCCC=CCCC[C@@](C)(C(N)=O)NC(=O)CNC(=O)[C@H](CC(C)C)NC(=O)[C@H](CC(C)C)NC1=O [sTIP-02, KKRYSRE*LLG*]
Circular dichroism
  helicity: 18%
eIF4E
  Kd (in words): nanomolar range
  affinity / binding to eIF4E (in words): no improvement in binding over eIF4G^D5S

## CC(=O)N[C@@H](CCCCN)C(=O)N[C@@H](CCCCN)C(=O)N[C@@H](CCCNC(=N)N)C(=O)N[C@@H](Cc1ccc(O)cc1)C(=O)N[C@@H](CO)C(=O)N[C@@H](CCCNC(=N)N)C(=O)N[C@@]1(C)CCCC=CCCC[C@@](C)(C(=O)N[C@@H](Cc2ccccc2)C(N)=O)NC(=O)[C@H](CC(C)C)NC(=O)[C@H](CC(C)C)NC(=O)[C@H](C)NC1=O (relative stereo) [sTIP-01^F8A, KKRYSR*ALL*F]
Circular dichroism
  helicity: 80%
eIF4E
  affinity / binding to eIF4E (in words): improved Kd values as compared to sTIP-01

## CC[C@H](NC(=O)[C@]1(C)CCCC=CCCC[C@](C)(NC(=O)[C@H](CCCNC(=N)N)NC(=O)[C@H](CO)NC(=O)[C@H](Cc2ccc(O)cc2)NC(=O)[C@H](CCCNC(=N)N)NC(=O)[C@H](CCCCN)NC(=O)[C@H](CCCCN)NC(C)=O)C(=O)N[C@@H](Cc2ccccc2)C(=O)N[C@@H](CC(C)C)C(=O)N[C@@H](CC(C)C)C(=O)N1)C(N)=O (relative stereo) [sTIP-01^F12&, KKRYSR*FLL*&]
Circular dichroism
  helicity: 44%
eIF4E
  affinity / binding to eIF4E (in words): improved Kd values as compared to sTIP-01
[1]
  Helicity (%): 44%

B1: TIP-04 (peptide)
peptide: Ac-KKRYSR[Aib]QLL[Aib]L-NH2
notes: Printed KKRYSRXQLLXL, X = AIB; also called AIB derivative of sTIP-04
[2]
  Kd: 60 nM
[3]
  Kd: 22 nM

B2: sTIP-01 (peptide)
peptide: Ac-KKRYSR[S5]FLL[S5]F-NH2
modifications: staple 7-11
SMILES: CC(=O)N[C@@H](CCCCN)C(=O)N[C@@H](CCCCN)C(=O)N[C@@H](CCCNC(=N)N)C(=O)N[C@@H](Cc1ccc(O)cc1)C(=O)N[C@@H](CO)C(=O)N[C@@H](CCCNC(=N)N)C(=O)N[C@@]1(C)CCCC=CCCC[C@@](C)(C(=O)N[C@@H](Cc2ccccc2)C(N)=O)NC(=O)[C@H](CC(C)C)NC(=O)[C@H](CC(C)C)NC(=O)[C@H](Cc2ccccc2)NC1=O
notes: Printed KKRYSR*FLL*F, * = staple position
[4]
  fold increase in Kd over eIF4G^D5S: ~4.5 fold
[2]
  Kd: 558 nM

B3: TIP-01 (peptide)
peptide: Ac-KKRYSR[Aib]FLL[Aib]F-NH2
SMILES: CC(=O)N[C@@H](CCCCN)C(=O)N[C@@H](CCCCN)C(=O)N[C@@H](CCCNC(=N)N)C(=O)N[C@@H](Cc1ccc(O)cc1)C(=O)N[C@@H](CO)C(=O)N[C@@H](CCCNC(=N)N)C(=O)NC(C)(C)C(=O)N[C@@H](Cc1ccccc1)C(=O)N[C@@H](CC(C)C)C(=O)N[C@@H](CC(C)C)C(=O)NC(C)(C)C(=O)N[C@@H](Cc1ccccc1)C(N)=O
notes: Printed KKRYSRXFLLXF, X = AIB; also called diAIB derivative of sTIP-01
[4]
  fold decrease in Kd over eIF4G^D5S: ~2 fold
[2]
  Kd: 52.4 nM
[3]
  Kd: 59.7 nM

B4: TIP-01^F8A (peptide)
peptide: Ac-KKRYSR[Aib]ALL[Aib]F-NH2
SMILES: CC(=O)N[C@@H](CCCCN)C(=O)N[C@@H](CCCCN)C(=O)N[C@@H](CCCNC(=N)N)C(=O)N[C@@H](Cc1ccc(O)cc1)C(=O)N[C@@H](CO)C(=O)N[C@@H](CCCNC(=N)N)C(=O)NC(C)(C)C(=O)N[C@@H](C)C(=O)N[C@@H](CC(C)C)C(=O)N[C@@H](CC(C)C)C(=O)NC(C)(C)C(=O)N[C@@H](Cc1ccccc1)C(N)=O
notes: Printed KKRYSRXALLXF, X = AIB
[2]
  Kd: 156 nM
[3]
  Kd: 117 nM

B5: TIP-01^F12& (peptide)
peptide: Ac-KKRYSR[Aib]FLL[Aib][Abu]-NH2
SMILES: CC[C@H](NC(=O)C(C)(C)NC(=O)[C@H](CC(C)C)NC(=O)[C@H](CC(C)C)NC(=O)[C@H](Cc1ccccc1)NC(=O)C(C)(C)NC(=O)[C@H](CCCNC(=N)N)NC(=O)[C@H](CO)NC(=O)[C@H](Cc1ccc(O)cc1)NC(=O)[C@H](CCCNC(=N)N)NC(=O)[C@H](CCCCN)NC(=O)[C@H](CCCCN)NC(C)=O)C(N)=O
notes: Printed KKRYSRXFLLX&
[2]
  Kd: 133 nM
[3]
  Kd: 111 nM

B6: TIP-02 (peptide)
peptide: Ac-KKRYSRE[Aib]LLG[Aib]-NH2
SMILES: CC(=O)N[C@@H](CCCCN)C(=O)N[C@@H](CCCCN)C(=O)N[C@@H](CCCNC(=N)N)C(=O)N[C@@H](Cc1ccc(O)cc1)C(=O)N[C@@H](CO)C(=O)N[C@@H](CCCNC(=N)N)C(=O)N[C@@H](CCC(=O)O)C(=O)NC(C)(C)C(=O)N[C@@H](CC(C)C)C(=O)N[C@@H](CC(C)C)C(=O)NCC(=O)NC(C)(C)C(N)=O
notes: Printed KKRYSREXLLGX, X = AIB; also called AIB derivative of sTIP-02
[5]
  Kd: 9190 nM

B7: sTIP-03 (peptide)
peptide: Ac-KKRYSRE[R5]LL[S5]F-NH2
modifications: staple 8-11
notes: Printed KKRYSRE*LL*F, * = staple position
[6]
  fold improvement in Kd: 17 fold

B8: eIF4G^D5S (peptide)
peptide: Ac-KKRYSREFLLGF-NH2
notes: also called eIF4G1^D5S; linear template peptide
[2]
  Kd: 195 nM
[3]
  Kd: 99.9 nM

B9: TIP-01^Tr (peptide)
peptide: Ac-KKRYSR[Aib]FLL[Aib]-NH2
SMILES: CC(=O)N[C@@H](CCCCN)C(=O)N[C@@H](CCCCN)C(=O)N[C@@H](CCCNC(=N)N)C(=O)N[C@@H](Cc1ccc(O)cc1)C(=O)N[C@@H](CO)C(=O)N[C@@H](CCCNC(=N)N)C(=O)NC(C)(C)C(=O)N[C@@H](Cc1ccccc1)C(=O)N[C@@H](CC(C)C)C(=O)N[C@@H](CC(C)C)C(=O)NC(C)(C)C(N)=O
notes: Printed KKRYSRXFLLX; TIP-01 with the C-terminal F12 removed
[7]
  Kd: 12100 nM
